This data set deals with the molecule itself. In words: cryo-EM structure; 150 nM biotinylated dynein^E2488Q, 650 nM Lis1, 1.2 mM ATP, 1.2 mM Na3VO4, on streptavidin affinity grids; 4.1 Å map (C2), 3.6 Å after symmetry expansion.

Here are results for 1 protein from publication PMC10497415, “Lis1 relieves cytoplasmic dynein-1 autoinhibition by acting as a molecular wedge” (Nature Structural & Molecular Biology, 2023).

B1: S. cerevisiae Lis1 (Pac1) (natural protein)
chain: MTNWQQQLPLTDTQKNELDKSVLRYLNWNYKQTVRHEHAQDYESVRHAIVTLSGFLLQESVDRQEFISNNDTSNESMVDIDELLLPKKWNSIVRLQKKIIELEQNTETLVSQIKDLNTQVSELAQFKPTTSNGTSAHNVLKWIPRNLPSCLINVESSVTSVKLHPNLPIVFVATDHGKLYAFDLFNYTIPLASLQSHTKAITSMDVLFTNYTNSSKKNYLVIVTASKDLQIHVFKWVSEECKFQQIRSLLGHEHIVSAVKIWQKNNDVHIASCSRDQTVKIWDFHNGWSLKTFQPHSQWVRSIDVLGDYIISGSHDTTLRLTHWPSGNGLSVGTGHEFPIEKVKFIHFIEDSPEIRFRTPSTDRYKNWGMQYCVSASRDRTIKIWEIPLPTLMAHRAPIPNPTDSNFRCVLTLKGHLSWVRDISIRGQYLFSCADDKSVRCWDLNTGQCLHVWEKLHTGFVNCLDLDVDFDSNVTPRQMMVTGGLDCKSNVFMR
notes: Lis1 (Pac1), S. cerevisiae; a dimer; only the β-propellers are spoken of in the structure; also called yeast Lis1; source: S. cerevisiae, purified (Ni-NTA, IgG Sepharose, TEV cleavage)
B1: the binding result is “binds”.
